Columns and labels:
Experiment in all cases: cell_activity
[1] = system: ZFP-TF SBS 57890 (artificial); conditions: AAV9 hSYN1 in humanized tau mice, 6 wk; mouse tau ~81%; human iPSC neurons tau protein reduced 2-fold (p208)
[2] = system: ZFP-TF SBS 65918 R(-5)Q in F1 and F5 (Qm5 phosphate contact mutants) (artificial); conditions: AAV6 SYN1, human iPSC-derived neurons, 32 days, ELISA; combined with 57890 >10-fold
[3] = system: ZFP-TF SBS 57930 (artificial); conditions: AAV6 SYN1, human iPSC-derived neurons, 32 days, ELISA

Sequence | activity (% human tau mRNA repression) [1] | activity (fold tau protein reduction) [2] | activity (fold tau protein reduction) [3]
TGGTGCTGGAGCTGGTGGGTGGCGGAGA (double strand) [MAPT target site of 57890] | 60 |  | 
CGGCAGAAGGTGGGCGGTGGCGGCGGCG (double strand) [MAPT target site of 57930/65918] |  | > 2 | > 5

From US12318427
